From patent publication US12072338B2, “Pharmaceutical peptides for the treatment of inflammatory diseases” (PROTAGONISTS LTD., priority 2007, dated 2024)

How the values were obtained:
Exodus-2 = target: T1, Exodus-2 (Homo sapiens, UniProt O00585); test: Micro-array analysis of chemokine binding peptides: Exodus-2
T1 construct: purchased 300-35
T1 sequence (O00585 24-134): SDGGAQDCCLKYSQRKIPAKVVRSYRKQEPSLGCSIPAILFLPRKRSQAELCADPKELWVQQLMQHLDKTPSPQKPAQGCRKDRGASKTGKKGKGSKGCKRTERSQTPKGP
Procedure: (§1) (1) Printing: Chemokine (CK) solution (in water) was serially diluted with Print Reagent (GenTel BioSurfaces USA) to final concentrations of 50 μg and 25 μg/ml. BSA/BSA-Biotin control solutions (in water) were diluted with Print Reagent to 100 μg/ml. Amplified stock of M13 phage control (M13KEgIII Cloning Vector, New England Biolabs, Cat.No.E8101S) was stored in Tris Buffered Saline (TBS; pH7.5, 4° C.) and diluted with Print Reagent to the working titre (10^8 pfu/μl). An automated spotting robot (16 pin print tool, 0.4 mm head; BioRobotics, UK) was used to print the CK/BSA control/M13 control, 5 repeats per sample (CK 25 μg/ml and 50 μg/ml; BSA 100 μg/ml; M13 20 μl), on PATH Protein Microarray Slides (GenTel, Prod.No. 2-1005/-1025) at […], and 50-70% relative humidity. Printed micro-array slides were stored at Room Temperature (RT) or 4° C. for at least 24 h before use.
(§2) (2) Blocking: Block Buffer (500 μl/partition; PATHblock, GenTel, Prod.No. 2-1014) was applied to the slide for 1 hour at room temp (RT). After removal of Block Buffer, the slide was air dried for 25 minutes;
(§3) (3) Phage Presented Peptide Binding: Amplified recombinant phage stock was stored in TBS and diluted with Wash Buffer to working titer (10^7 pfu/μl). Recombinant phage suspension (300 μl) was applied per partition and incubated at RT for 1 hour with gentle agitation.
(§4) (4) First Washing: The slides were washed twice with Wash Buffer 300 μl/partition).
(§5) (5) Primary Antibody (Ab) Labeling: The slides were incubated with the Primary Ab (1 mg/ml diluted ×2500 (Wash Reagent), 300 μl; Mouse Anti-M13 monoclonal Ab; Amersham Biosciences, UK; Product Code 27-9420-01) for 45 minutes at RT.
(§6) (6) Second Washing: The slides were washed twice with Wash Buffer (300 μl/partition).
(§7) (7) Secondary Ab Labeling: The slides were incubated with Secondary Ab (1.5 mg/ml diluted ×5000 (Wash Reagent), 300 μl; Cy3-conjugated AffiniPure Goat Anti-Mouse IgG; Jackson ImmunoReserch Labs, USA; Product Code 115-165-062).
(§8) (8) Third Washing: The slides were washed twice with Wash Buffer (300 μl/partition).
(§9) (9) Rinse: the slides were rinsed twice with Rinse Buffer (PATHrinse, GenTel, Prod.No. 2-1018) then dried well.
(§10) (10) Scanning: The peptide-bound, labeled slide was scanned (Laser Intensity 80%, Gain 80%, Resolution 10 μm) with a ScanArray Life Scanner (Packard BioChip Technologies, USA).
(§11) (11) Analysis: Quantitative analysis of micro-array was performed by the SpotReader program of Niles Scientific (USA) and presented as Relative Fluorescence (RF) as a function of CK concentration. Micro-array readout (Cy3 fluorescence) was quantified to determine the relative binding affinities of a CBP for the CKs and by inference, the specificity of the CBP for binding to a CK.

MCP-4 = target: T2, MCP-4 (Homo sapiens, UniProt Q99616); test: Micro-array analysis of chemokine binding peptides: MCP-4; conditions: limit = start of the upper 75% of that peptide's response range
T2 construct: purchased 300-24
Procedure: as §1, §2, §3, §4, §5, §6, §7, §8, §9, §10, §11

MCP-2 = target: T3, MCP-2 (Homo sapiens, UniProt P80075); test: Micro-array analysis of chemokine binding peptides: MCP-2; conditions: limit = start of the upper 75% of that peptide's response range
T3 construct: purchased 300-15
T3 sequence (P80075 24-99): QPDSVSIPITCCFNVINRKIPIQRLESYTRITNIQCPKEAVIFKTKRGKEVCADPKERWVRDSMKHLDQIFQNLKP
Procedure: as §1, §2, §3, §4, §5, §6, §7, §8, §9, §10, §11

Lymphotactin = target: T4, Lymphotactin (Homo sapiens, UniProt P47992); test: Micro-array analysis of chemokine binding peptides: Lymphotactin
T4 construct: purchased 300-20
T4 sequence (P47992 22-114): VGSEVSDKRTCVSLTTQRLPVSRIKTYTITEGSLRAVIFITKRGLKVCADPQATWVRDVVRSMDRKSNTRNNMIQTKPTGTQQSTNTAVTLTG
Procedure: as §1, §2, §3, §4, §5, §6, §7, §8, §9, §10, §11

RANTES = target: T5, RANTES (Homo sapiens, UniProt P13501); test: Micro-array analysis of chemokine binding peptides: RANTES
T5 construct: purchased 300-06
T5 sequence (P13501 24-91): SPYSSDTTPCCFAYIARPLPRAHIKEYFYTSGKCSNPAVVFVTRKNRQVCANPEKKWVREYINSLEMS
Procedure: as §1, §2, §3, §4, §5, §6, §7, §8, §9, §10, §11

Mig = target: T6, Mig (Homo sapiens, UniProt Q07325); test: Micro-array analysis of chemokine binding peptides: Mig
T6 construct: purchased 300-26
T6 sequence (Q07325 23-125): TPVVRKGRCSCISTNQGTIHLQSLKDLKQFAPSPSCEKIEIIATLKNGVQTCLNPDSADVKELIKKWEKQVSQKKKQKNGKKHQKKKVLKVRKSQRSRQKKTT
Procedure: as §1, §2, §3, §4, §5, §6, §7, §8, §9, §10, §11

Eotaxin 3 = target: T7, Eotaxin 3 (Homo sapiens, UniProt Q9Y258); test: Micro-array analysis of chemokine binding peptides: Eotaxin 3
T7 construct: purchased 300-48
T7 sequence (Q9Y258 24-94): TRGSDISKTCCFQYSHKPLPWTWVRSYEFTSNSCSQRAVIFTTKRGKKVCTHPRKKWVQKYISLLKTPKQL
Procedure: as §1, §2, §3, §4, §5, §6, §7, §8, §9, §10, §11

Eotaxin = target: T8, Eotaxin (Homo sapiens, UniProt P51671); test: Micro-array analysis of chemokine binding peptides: Eotaxin
T8 construct: purchased 300-21
Procedure: as §1, §2, §3, §4, §5, §6, §7, §8, §9, §10, §11

MCP-1 = target: T9, MCP-1 (Homo sapiens, UniProt P13500); test: Micro-array analysis of chemokine binding peptides: MCP-1; conditions: limit = start of the upper 75% of that peptide's response range
T9 construct: purchased 300-04
Procedure: as §1, §2, §3, §4, §5, §6, §7, §8, §9, §10, §11

Fractalkine = target: T10, Fractalkine (Homo sapiens, UniProt P78423); test: Micro-array analysis of chemokine binding peptides: Fractalkine
T10 construct: purchased 300-31
T10 sequence (P78423 25-100 limits assumed): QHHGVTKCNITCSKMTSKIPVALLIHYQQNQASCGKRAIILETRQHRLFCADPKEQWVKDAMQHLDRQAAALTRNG
Procedure: as §1, §2, §3, §4, §5, §6, §7, §8, §9, §10, §11

BCA-1 = target: T11, BCA-1 (Homo sapiens, UniProt O43927); test: Micro-array analysis of chemokine binding peptides: BCA-1
T11 construct: purchased 300-47
T11 sequence (O43927 23-109): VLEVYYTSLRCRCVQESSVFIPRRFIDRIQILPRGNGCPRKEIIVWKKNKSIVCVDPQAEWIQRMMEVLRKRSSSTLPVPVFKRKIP
Procedure: as §1, §2, §3, §4, §5, §6, §7, §8, §9, §10, §11

IP-10 = target: T12, IP-10 (Homo sapiens, UniProt P02778); test: Micro-array analysis of chemokine binding peptides: IP-10
T12 construct: purchased 300-12
T12 sequence (P02778 22-98): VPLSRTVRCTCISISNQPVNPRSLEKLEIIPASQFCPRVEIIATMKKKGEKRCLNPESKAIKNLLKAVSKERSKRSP
Procedure: as §1, §2, §3, §4, §5, §6, §7, §8, §9, §10, §11

TECK = target: T13, TECK (Homo sapiens, UniProt O15444); test: Micro-array analysis of chemokine binding peptides: TECK
T13 construct: purchased 300-45
T13 sequence (O15444 24-150): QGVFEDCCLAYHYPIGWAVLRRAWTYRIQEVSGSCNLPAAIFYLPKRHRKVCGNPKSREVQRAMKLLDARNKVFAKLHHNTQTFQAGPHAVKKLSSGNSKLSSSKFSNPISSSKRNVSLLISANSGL
Procedure: as §1, §2, §3, §4, §5, §6, §7, §8, §9, §10, §11

GRO-β = target: T14, GRO-β (Homo sapiens, UniProt P19875); test: Micro-array analysis of chemokine binding peptides: GRO-β
T14 construct: purchased 300-39
T14 sequence (P19875 35-107): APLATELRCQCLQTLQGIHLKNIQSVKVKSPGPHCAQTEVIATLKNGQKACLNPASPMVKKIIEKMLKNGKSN
Procedure: as §1, §2, §3, §4, §5, §6, §7, §8, §9, §10, §11

IL-8 = test: Micro-array analysis of chemokine binding peptides: IL-8
Procedure: as §1, §2, §3, §4, §5, §6, §7, §8, §9, §10, §11

I-TAC = target: T15, I-TAC (Homo sapiens, UniProt O14625); test: Micro-array analysis of chemokine binding peptides: I-TAC
T15 construct: purchased 300-46
T15 sequence (O14625 22-94): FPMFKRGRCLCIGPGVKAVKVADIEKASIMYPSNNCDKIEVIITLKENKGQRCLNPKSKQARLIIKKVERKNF
Procedure: as §1, §2, §3, §4, §5, §6, §7, §8, §9, §10, §11

SDF1-α = target: T16, SDF1-α (Homo sapiens, UniProt P48061); test: Micro-array analysis of chemokine binding peptides: SDF1-α
T16 construct: purchased 300-28a
Procedure: as §1, §2, §3, §4, §5, §6, §7, §8, §9, §10, §11

Eotaxin 2 = target: T17, Eotaxin 2 (Homo sapiens, UniProt O00175); test: Micro-array analysis of chemokine binding peptides: Eotaxin 2
T17 construct: purchased 300-33
T17 sequence (O00175 27-119): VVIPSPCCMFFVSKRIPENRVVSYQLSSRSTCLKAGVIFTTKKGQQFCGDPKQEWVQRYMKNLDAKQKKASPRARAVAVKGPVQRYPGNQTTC
Procedure: as §1, §2, §3, §4, §5, §6, §7, §8, §9, §10, §11

I-309 = target: T18, I-309 (Homo sapiens, UniProt P22362); test: Micro-array analysis of chemokine binding peptides: I-309
T18 construct: purchased 300-37
T18 sequence (P22362 24-96): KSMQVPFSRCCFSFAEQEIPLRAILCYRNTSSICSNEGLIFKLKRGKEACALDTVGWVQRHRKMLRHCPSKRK
Procedure: as §1, §2, §3, §4, §5, §6, §7, §8, §9, §10, §11

SDF1-β = target: T19, SDF1-β (Homo sapiens, UniProt P48061); test: Micro-array analysis of chemokine binding peptides: SDF1-β
T19 construct: purchased 300-28b
Procedure: as §1, §2, §3, §4, §5, §6, §7, §8, §9, §10, §11

[1] = limit = start of the upper 75% of that peptide's response range

T9 sequence (P13500 24-99): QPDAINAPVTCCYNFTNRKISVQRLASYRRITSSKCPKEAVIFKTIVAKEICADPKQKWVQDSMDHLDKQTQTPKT
T2 sequence (Q99616 17-98): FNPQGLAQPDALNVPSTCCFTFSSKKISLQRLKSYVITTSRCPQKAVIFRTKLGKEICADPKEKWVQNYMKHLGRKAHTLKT
Sequence of IL-8 (P10145 28-99 limits assumed): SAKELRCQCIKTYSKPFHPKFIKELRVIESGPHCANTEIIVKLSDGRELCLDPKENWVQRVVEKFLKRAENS
T16 sequence (P48061 22-89 limits assumed): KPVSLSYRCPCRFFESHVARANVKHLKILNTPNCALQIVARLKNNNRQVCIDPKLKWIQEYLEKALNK
T19 sequence (P48061 22-93): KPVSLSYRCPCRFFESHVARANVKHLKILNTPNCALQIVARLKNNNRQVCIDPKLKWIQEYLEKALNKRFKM

| binding to Exodus-2, stated in words (Exodus-2) | binding to MCP-4 with relatively high affinity (Relative Fluorescence Units) (MCP-4) | binding to MCP-2 with relatively high affinity (Relative Fluorescence Units) (MCP-2) | binding to Lymphotactin, stated in words (Lymphotactin) | binding to RANTES, stated in words (RANTES) | binding to Mig, stated in words (Mig) | binding to Eotaxin 3, stated in words (Eotaxin 3) | binding to Eotaxin, stated in words (Eotaxin) | binding to MCP-1 with relatively high affinity (Relative Fluorescence Units) (MCP-1) | binding to Fractalkine, stated in words (Fractalkine) | binding to BCA-1, stated in words (BCA-1) | binding to IP-10, stated in words (IP-10) | binding to TECK, stated in words (TECK) | Substance | other results |
| --- | --- | --- | --- | --- | --- | --- | --- | --- | --- | --- | --- | --- | --- | --- |
| bound | > 15,000 RFU | > 15,000 RFU | bound | bound | bound | bound | bound | > 15,000 RFU | bound | bound | bound | bound | TKCOKE (TKCQKE; listed as Homo sapiens) [Ph-p20] | binding to GRO-β, stated in words (GRO-β): bound; binding to IL-8, stated in words (IL-8): bound |
| bound | > 15,000 RFU | > 15,000 RFU | bound |  | bound | bound | bound | > 15,000 RFU |  | bound | bound | bound | WVFGAAACK [Ph-p8.6] | binding to I-TAC, stated in words (I-TAC): bound; binding to SDF1-α, stated in words (SDF1-α): bound; binding to Eotaxin 2, stated in words (Eotaxin 2): bound; binding to I-309, stated in words (I-309): bound; binding to SDF1-β, stated in words (SDF1-β): bound |
| bound | > 15,000 RFU | > 15,000 RFU | bound | bound |  | bound | bound | > 15,000 RFU | bound | bound |  | bound | WVFGHGMCK [Ph-p25] | binding to Mig with relatively high affinity (Relative Fluorescence Units) (Mig; [1]): > 15,000 RFU; binding to IP-10 with relatively high affinity (Relative Fluorescence Units) (IP-10; [1]): > 15,000 RFU; binding to GRO-β with relatively high affinity (Relative Fluorescence Units) (GRO-β; [1]): > 15,000 RFU; binding to IL-8 with relatively high affinity (Relative Fluorescence Units) (IL-8; [1]): > 15,000 RFU |
